Assays:
[1] = target: tumor necrosis factor alpha (TNF-α), R&D Systems 210-TA-005 (UniProt P01375); experiment: t-PLA 10X probes, buffer; TNF-α 1.00E-09 M
[2] = target: tumor necrosis factor alpha (TNF-α), R&D Systems 210-TA-005 (UniProt P01375); experiment: t-PLA 10X probes, human plasma; TNF-α 5.00E-07 M
[3] = target: tumor necrosis factor alpha (TNF-α), R&D Systems 210-TA-005 (UniProt P01375); experiment: t-PLA 10X probes, human plasma; TNF-α 1.00E-08 M
[4] = target: tumor necrosis factor alpha (TNF-α), R&D Systems 210-TA-005 (UniProt P01375); experiment: c-PLA 1X probes, human plasma; TNF-α 1.00E-13 M
[5] = target: tumor necrosis factor alpha (TNF-α), R&D Systems 210-TA-005 (UniProt P01375); experiment: c-PLA, buffer; TNF-α 1.00E-08 M
[6] = target: tumor necrosis factor alpha (TNF-α), R&D Systems 210-TA-005 (UniProt P01375); experiment: c-PLA, buffer; TNF-α 1.00E-12 M
[7] = target: tumor necrosis factor alpha (TNF-α), R&D Systems 210-TA-005 (UniProt P01375); experiment: t-PLA, buffer; TNF-α 1.00E-11 M
[8] = target: tumor necrosis factor alpha (TNF-α), R&D Systems 210-TA-005 (UniProt P01375); experiment: t-PLA 1X probes, buffer; TNF-α 5.00E-07 M
[9] = target: tumor necrosis factor alpha (TNF-α), R&D Systems 210-TA-005 (UniProt P01375); experiment: t-PLA 10X probes, buffer; TNF-α 1.00E-10 M
[10] = target: tumor necrosis factor alpha (TNF-α), R&D Systems 210-TA-005 (UniProt P01375); experiment: t-PLA 1X probes, buffer; TNF-α 1.00E-09 M
[11] = target: tumor necrosis factor alpha (TNF-α), R&D Systems 210-TA-005 (UniProt P01375); experiment: c-PLA, buffer; TNF-α 1.00E-11 M
[12] = target: tumor necrosis factor alpha (TNF-α), R&D Systems 210-TA-005 (UniProt P01375); experiment: c-PLA 1X probes, human plasma; TNF-α 1.00E-11 M
[13] = target: tumor necrosis factor alpha (TNF-α), R&D Systems 210-TA-005 (UniProt P01375); experiment: t-PLA 10X probes, human plasma; TNF-α 1.00E-10 M
[14] = target: vascular endothelial growth factor (VEGF), R&D Systems 293-VE-010 (human) (UniProt P15692); experiment: t-PLA, human plasma; VEGF 1.00E-11 M
[15] = target: vascular endothelial growth factor (VEGF), R&D Systems 293-VE-010 (human) (UniProt P15692); experiment: t-PLA, chicken plasma; VEGF 1.00E-08 M
[16] = target: vascular endothelial growth factor (VEGF), R&D Systems 293-VE-010 (human) (UniProt P15692); experiment: c-PLA with preamplification; VEGF 1.00E-09 M
[17] = target: vascular endothelial growth factor (VEGF), R&D Systems 293-VE-010 (human) (UniProt P15692); experiment: c-PLA, chicken plasma; VEGF 1.00E-13 M
[18] = target: vascular endothelial growth factor (VEGF), R&D Systems 293-VE-010 (human) (UniProt P15692); experiment: t-PLA, buffer; VEGF 1.00E-14 M
[19] = target: vascular endothelial growth factor (VEGF), R&D Systems 293-VE-010 (human) (UniProt P15692); experiment: c-PLA, chicken plasma; VEGF 1.00E-08 M
[20] = target: vascular endothelial growth factor (VEGF), R&D Systems 293-VE-010 (human) (UniProt P15692); experiment: t-PLA, buffer; VEGF 1.00E-08 M
[21] = target: vascular endothelial growth factor (VEGF), R&D Systems 293-VE-010 (human) (UniProt P15692); experiment: c-PLA, chicken plasma; VEGF 1.00E-14 M
[22] = target: vascular endothelial growth factor (VEGF), R&D Systems 293-VE-010 (human) (UniProt P15692); experiment: t-PLA with preamplification; VEGF 1.00E-12 M
[23] = target: vascular endothelial growth factor (VEGF), R&D Systems 293-VE-010 (human) (UniProt P15692); experiment: BLI (Octet RED), antibody on protein G sensors, 1:1 global fit
[24] = target: vascular endothelial growth factor (VEGF), R&D Systems 293-VE-010 (human) (UniProt P15692); experiment: t-PLA, buffer; VEGF 1.00E-11 M
[25] = target: vascular endothelial growth factor (VEGF), R&D Systems 293-VE-010 (human) (UniProt P15692); experiment: c-PLA, buffer; VEGF 1.00E-10 M
[26] = target: vascular endothelial growth factor (VEGF), R&D Systems 293-VE-010 (human) (UniProt P15692); experiment: t-PLA with preamplification; VEGF 1.00E-14 M
[27] = target: vascular endothelial growth factor (VEGF), R&D Systems 293-VE-010 (human) (UniProt P15692); experiment: t-PLA with preamplification; VEGF 1.00E-08 M
[28] = target: vascular endothelial growth factor (VEGF), R&D Systems 293-VE-010 (human) (UniProt P15692); experiment: t-PLA, human plasma; VEGF 1.00E-12 M

Sequence of UniProt P15692 (P15692 other isoform, or with tags, fused parts or gaps limits assumed): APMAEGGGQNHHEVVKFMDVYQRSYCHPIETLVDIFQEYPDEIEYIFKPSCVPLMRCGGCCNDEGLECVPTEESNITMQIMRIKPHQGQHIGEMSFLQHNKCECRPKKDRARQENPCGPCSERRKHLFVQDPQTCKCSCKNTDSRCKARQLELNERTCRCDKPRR
Sequence of UniProt P01375 (P01375 77-233 limits assumed): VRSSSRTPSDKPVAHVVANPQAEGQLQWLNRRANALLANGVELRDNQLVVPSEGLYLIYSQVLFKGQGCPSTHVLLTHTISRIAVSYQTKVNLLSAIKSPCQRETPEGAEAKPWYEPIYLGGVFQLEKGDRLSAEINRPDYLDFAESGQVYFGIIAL

affinity-purified polyclonal anti-TNF-α antibody (R&D Systems AF-210-NA)
Counts [1]: 3.2e+08
SBR [1]: 56
Counts [2]: 2.25e+09
SBR [2]: 198
Counts [3]: 3.81e+08
SBR [3]: 33
Counts [4]: 83.7
SBR [4]: 1.1
Counts [5]: 11600
SBR [5]: 1030
Counts [6]: 4.62
Counts [7]: 443000
SBR [7]: 2.6
Counts [8]: 1.33e+08
Counts [9]: 2.75e+07
SBR [9]: 4.8
Counts [10]: 1.98e+07
Counts [11]: 22.1
Counts [12]: 105
SBR [12]: 1.4
Counts [13]: 1.44e+07
SBR [13]: 1.3

affinity-purified polyclonal anti-VEGF antibody (R&D Systems AF-293-NA)
Counts [14]: 7.15e+06
Counts [15]: 1.49e+08
SBR [15]: 2230
Counts [16]: 2.36e+08
SBR [16]: 3970
Counts [17]: 29
SBR [17]: 3.1
Counts [18]: 595000
SBR [18]: 1.7
Counts [19]: 40800
SBR [19]: 4420
Counts [20]: 2.5e+09
SBR [20]: 7230
Counts [21]: 10.7
SBR [21]: 1.2
Counts [22]: 1.26e+06
SBR [22]: 7.1
Kd [23]: 0.057 nM
Counts [24]: 4.21e+07
SBR [24]: 122
Counts [25]: 95900
SBR [25]: 3230
Counts [26]: 363000
Counts [27]: 1e+09
SBR [27]: 5680
Counts [28]: 2.06e+06
SBR [28]: 1.3
